Laboratory results as given in patent publication US20230365684A1.

Tests used:
[1] = target: human CD33 on cells (MOLM-13, Kasumi-1, OCI-AML-3, Kasumi-3) (human) (UniProt P20138); experiment: flow cytometry on MOLM-13 cells, 4 °C, serial dilutions of the antibody
[2] = target: human CD33 on cells (MOLM-13, Kasumi-1, OCI-AML-3, Kasumi-3) (human) (UniProt P20138); experiment: flow cytometry on Kasumi-1 cells, 4 °C, serial dilutions of the antibody
[3] = target: human CD33 on cells (MOLM-13, Kasumi-1, OCI-AML-3, Kasumi-3) (human) (UniProt P20138); experiment: flow cytometry on OCI-AML-3 cells, 4 °C, serial dilutions of the antibody
[4] = target: human CD33 on cells (MOLM-13, Kasumi-1, OCI-AML-3, Kasumi-3) (human) (UniProt P20138); experiment: flow cytometry on MOLM-13 cells, 4 °C, detection with PE goat F(ab')2 anti-human IgG-Fc

Chain of human CD33 on cells (MOLM-13, Kasumi-1, OCI-AML-3, Kasumi-3) (human) (P20138 18-364): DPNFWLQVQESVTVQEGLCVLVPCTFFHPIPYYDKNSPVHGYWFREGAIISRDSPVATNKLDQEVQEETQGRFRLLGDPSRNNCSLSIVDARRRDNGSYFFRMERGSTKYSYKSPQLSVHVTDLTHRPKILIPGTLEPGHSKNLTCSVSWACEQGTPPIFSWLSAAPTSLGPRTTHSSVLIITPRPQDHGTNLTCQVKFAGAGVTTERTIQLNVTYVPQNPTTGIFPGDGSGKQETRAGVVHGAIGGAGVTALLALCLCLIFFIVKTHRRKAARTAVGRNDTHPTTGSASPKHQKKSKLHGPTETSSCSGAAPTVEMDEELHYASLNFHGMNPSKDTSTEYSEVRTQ

EC50 [1]: 0.31 nM | EC50 [2]: 0.34 nM | EC50 [3]: 0.9 nM | EC50 (read off the curve) [4]: 0.04 µg/mL
B1: Lintuzumab (antibody, part only; not given: constant regions, V domains shown, not shown: another chain or arm of the molecule)
VH: QVQLVQSGAEVKKPGSSVKVSCKASGYTFTDYNMHWVRQAPGQGLEWIGYIYPYNGGTGYNQKFKSKATITADESTNTAYMELSSLRSEDTAVYYCARGRPAMDYWGQGTLVTVSS
VL: DIQMTQSPSSLSASVGDRVTITCRASESVDNYGISFMNWFQQKPGKAPKLLIYAASNQGSGVPSRFSGSGSGTDFTLTISSLQPDDFATYYCQQSKEVPWTFGQGTKVEIK
